Each block holds one molecule with its values, some of them ahead of it. Where no end group is shown, it is not given here. Alexa488 = Alexa488 fluorophore label
Tests used:
[1] = biological target: BACE (recombinant human BACE catalytic domain, expressed in CHO cells as BACE-T-IgG, IgG1 removed with thrombin) (human) (UniProt P56817); test: binding assay without UV light (fluorescence anisotropy); absence of UV light
[2] = biological target: BACE (recombinant human BACE catalytic domain, expressed in CHO cells as BACE-T-IgG, IgG1 removed with thrombin) (human) (UniProt P56817); test: fluorescence anisotropy competition against Molecule Y1, pH 4.5
[3] = biological target: BACE (recombinant human BACE catalytic domain, expressed in CHO cells as BACE-T-IgG, IgG1 removed with thrombin) (human) (UniProt P56817); test: fluorescence anisotropy competition against 10 nM Molecule Y1 on BACE, pH 4.5
[4] = biological target: BACE (recombinant human BACE catalytic domain, expressed in CHO cells as BACE-T-IgG, IgG1 removed with thrombin) (human) (UniProt P56817); test: fluorescence anisotropy competition against Molecule Y1 on BACE, pH 4.5; labelled 'Ka(nM)' on the sheet, it is the dissociation constant of the competing ligand; error 102.58; the text prints 1197 nM
[5] = biological target: BACE (recombinant human BACE catalytic domain, expressed in CHO cells as BACE-T-IgG, IgG1 removed with thrombin) (human) (UniProt P56817); test: fluorescence anisotropy binding assay
[6] = biological target: BACE (recombinant human BACE catalytic domain, expressed in CHO cells as BACE-T-IgG, IgG1 removed with thrombin) (human) (UniProt P56817); test: fluorescence anisotropy binding assay, pH 4.5; comparison of label positions (X, Y1, Z)
[7] = biological target: BACE (recombinant human BACE catalytic domain, expressed in CHO cells as BACE-T-IgG, IgG1 removed with thrombin) (human) (UniProt P56817); test: fluorescence anisotropy, BACE titrated into 10 nM Molecule Y1 with 10 µM OM99-2; reference: without OM99-2
[8] = biological target: BACE (recombinant human BACE catalytic domain, expressed in CHO cells as BACE-T-IgG, IgG1 removed with thrombin) (human) (UniProt P56817); test: fluorescence anisotropy, BACE titrated into 10 nM Molecule Y1, no OM99-2, fit to 1:1 binding (error 2.1556); the text prints this value rounded (57 / 58 nM)
[9] = biological target: BACE (recombinant human BACE catalytic domain, expressed in CHO cells as BACE-T-IgG, IgG1 removed with thrombin) (human) (UniProt P56817); test: fluorescence anisotropy, BACE titrated into 10 nM Molecule Y1 in the presence of 10 µM OM99-2, fit to 1:1 binding (error 1.5032); this table prints 'Kd' without a unit, nM is taken from the concentration axis and the -OM99-2 table
[10] = biological target: T1, BACE-1 (T7-BACE1(A14-T454)) (Homo sapiens (Human), UniProt P56817 14-454); test: X-ray crystallography, peptide soaked into BACE-1/DPH-153979 co-crystal
T1 construct: BACE dimer in the asymmetric unit; also called Construct #1
Description: Crystals appeared overnight and grew to their final dimensions (0.4×0.3×0.2 mm) in about two weeks.
Data were collected at 100° K using a Rigaku R-axis II system mounted on a RU-200 rotating anode generator and processed using HKL2000 (Otwinowski et. al., (1997) Methods in Enzymology, Macromolecular Crystallography, Part A; C. W. Carter, Jr. and R. M. Sweet, Eds.; Academic Press: New York, 276:307-326) (Table 6). The structure was determined by molecular replacement using the program EPMR (Kissinger et. al. (1999) Acta Crystallog. Sect. D, 55:484-491) in space group P2₁ with one BACE dimer per asymmetric unit. The starting model used was a BACE dimer (without inhibitor) from a previously determined structure. […] The active site inhibitor DPH-153979 was built into the electron density using the program QUANTA (Accelrys Software, Inc.) and refinement was carried out using the program CNX (Accelrys Software, Inc.). […] Refinement was not carried out past initial building of YPYFI due to ambiguous exosite peptide density.

[11] = biological target: BACE (recombinant human BACE catalytic domain, expressed in CHO cells as BACE-T-IgG, IgG1 removed with thrombin) (human) (UniProt P56817); test: ITC, 25° C., Dulbecco's PBS
[12] = biological target: BACE (recombinant human BACE catalytic domain, expressed in CHO cells as BACE-T-IgG, IgG1 removed with thrombin) (human) (UniProt P56817); test: ITC, 50 mM NaOAc, pH 4.5, 25° C.
[13] = biological target: BACE (recombinant human BACE catalytic domain, expressed in CHO cells as BACE-T-IgG, IgG1 removed with thrombin) (human) (UniProt P56817); test: ITC, 25° C., 50 mM NaOAc, pH 4.5
[14] = biological target: BACE (recombinant human BACE catalytic domain, expressed in CHO cells as BACE-T-IgG, IgG1 removed with thrombin) (human) (UniProt P56817); test: ITC, Dulbecco's PBS, pH 7.0, 25° C.
[15] = biological target: BACE (recombinant human BACE catalytic domain, expressed in CHO cells as BACE-T-IgG, IgG1 removed with thrombin) (human) (UniProt P56817); test: cell-based or functional assay
[16] = biological target: BACE (recombinant human BACE catalytic domain, expressed in CHO cells as BACE-T-IgG, IgG1 removed with thrombin) (human) (UniProt P56817); test: fluorescence anisotropy binding assay, pH 4.5
[17] = biological target: BACE (recombinant human BACE catalytic domain, expressed in CHO cells as BACE-T-IgG, IgG1 removed with thrombin) (human) (UniProt P56817); test: fluorescence anisotropy, BACE titrated into 10 nM labeled peptide, pH 4.5, 1:1 model
[18] = biological target: BACE (recombinant human BACE catalytic domain, expressed in CHO cells as BACE-T-IgG, IgG1 removed with thrombin) (human) (UniProt P56817); test: fluorescence anisotropy, BACE titrated into 10 nM labeled peptide, pH 7.1, 1:1 model
[19] = biological target: BACE (recombinant human BACE catalytic domain, expressed in CHO cells as BACE-T-IgG, IgG1 removed with thrombin) (human) (UniProt P56817); test: fluorescence anisotropy, pH 4.5 (value quoted for the labeled EBP used in the truncation screen)
[20] = biological target: BACE (recombinant human BACE catalytic domain, expressed in CHO cells as BACE-T-IgG, IgG1 removed with thrombin) (human) (UniProt P56817); test: ITC, Dulbecco's PBS, pH 7.1, 25° C.
[21] = biological target: BACE (recombinant human BACE catalytic domain, expressed in CHO cells as BACE-T-IgG, IgG1 removed with thrombin) (human) (UniProt P56817); test: ITC, pH 5.3, 37° C., peptide titrated into CHO BACE
[22] = biological target: BACE (recombinant human BACE catalytic domain, expressed in CHO cells as BACE-T-IgG, IgG1 removed with thrombin) (human) (UniProt P56817); test: fluorescence anisotropy competition against Molecule X, pH 4.5
[23] = biological target: BACE (recombinant human BACE catalytic domain, expressed in CHO cells as BACE-T-IgG, IgG1 removed with thrombin) (human) (UniProt P56817); test: fluorescence anisotropy competition against Molecule X, pH 7.1
[24] = biological target: BACE (recombinant human BACE catalytic domain, expressed in CHO cells as BACE-T-IgG, IgG1 removed with thrombin) (human) (UniProt P56817); test: ITC, pH 5.3, 37° C., peptide titrated into CHO BACE pre-incubated with a 10-fold excess of OM99-2
[25] = biological target: BACE (recombinant human BACE catalytic domain, expressed in CHO cells as BACE-T-IgG, IgG1 removed with thrombin) (human) (UniProt P56817); test: fluorescence anisotropy competition against 10 nM Molecule X on BACE, pH 7.1, upper panel
[26] = biological target: BACE (recombinant human BACE catalytic domain, expressed in CHO cells as BACE-T-IgG, IgG1 removed with thrombin) (human) (UniProt P56817); test: fluorescence anisotropy competition against Molecule X on BACE, pH 4.5, lower panel; labelled 'Ka(nM)' on the sheet, it is the dissociation constant of the competing ligand; error 337.16; the text prints it rounded (1073 nM)
[27] = biological target: BACE (recombinant human BACE catalytic domain, expressed in CHO cells as BACE-T-IgG, IgG1 removed with thrombin) (human) (UniProt P56817); test: fluorescence anisotropy competition against Molecule X on BACE, pH 7.1, upper panel; labelled 'Ka' on the sheet without a unit, it is the dissociation constant of the competing ligand, nM from the axis and the lower table; error 33.456; the text prints it rounded (84 nM)

BACE (recombinant human BACE catalytic domain, expressed in CHO cells as BACE-T-IgG, IgG1 removed with thrombin) (human), sequence (P56817 43-460 limits assumed, form in doubt): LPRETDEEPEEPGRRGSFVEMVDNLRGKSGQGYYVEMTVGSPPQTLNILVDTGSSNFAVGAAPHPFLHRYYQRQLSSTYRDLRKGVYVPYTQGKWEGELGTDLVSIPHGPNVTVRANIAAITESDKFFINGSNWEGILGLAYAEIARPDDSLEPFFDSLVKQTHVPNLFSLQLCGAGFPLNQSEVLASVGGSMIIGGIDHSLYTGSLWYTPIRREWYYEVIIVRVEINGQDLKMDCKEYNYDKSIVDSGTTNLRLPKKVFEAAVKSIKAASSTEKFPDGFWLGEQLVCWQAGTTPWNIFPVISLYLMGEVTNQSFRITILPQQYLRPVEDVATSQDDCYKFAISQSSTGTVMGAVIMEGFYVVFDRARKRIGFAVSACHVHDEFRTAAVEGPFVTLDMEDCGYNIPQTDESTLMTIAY
T1 sequence (P56817 other isoform, or with tags, fused parts or gaps limits assumed): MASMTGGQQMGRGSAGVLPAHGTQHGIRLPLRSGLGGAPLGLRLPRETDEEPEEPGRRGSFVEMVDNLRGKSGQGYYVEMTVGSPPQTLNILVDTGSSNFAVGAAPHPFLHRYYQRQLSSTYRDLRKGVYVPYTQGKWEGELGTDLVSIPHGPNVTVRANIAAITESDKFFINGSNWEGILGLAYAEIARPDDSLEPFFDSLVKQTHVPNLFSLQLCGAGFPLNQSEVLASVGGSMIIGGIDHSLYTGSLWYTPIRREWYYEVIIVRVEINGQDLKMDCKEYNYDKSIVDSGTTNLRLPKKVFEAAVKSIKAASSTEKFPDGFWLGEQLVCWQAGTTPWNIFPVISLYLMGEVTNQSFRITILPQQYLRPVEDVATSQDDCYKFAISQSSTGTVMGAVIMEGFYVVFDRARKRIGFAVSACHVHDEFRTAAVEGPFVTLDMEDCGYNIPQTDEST

Molecule: YPYFIPL (not fully specified (N-terminus, C-terminus)) [Molecule Y1 (YPYFIPL with C-terminal Alexa488)]
Kd [5]: 57 nM
Kd [6]: 58 nM
fold enhancement of affinity in the presence of 10 µM OM99-2 [7]: 5 fold
Kd [8]: 57.6 nM
Kd [9]: 9.59 nM

Molecule: YPYFIPL-Alexa488 [BMS-597041 (YPYFIPL-Alexa488 Fluorophore)]
binding result [10]: binds

Molecule: YPYFIPL (not fully specified (N-terminus, C-terminus)) [Molecule Y3]
IC50, inhibition of the proteolytic activity of BACE (cleavage of MCA-…(-dnp)-COOH, HPLC) [15]: 731 nM
Kd [5]: 48 nM

Molecule: NLTTYPYFIPLP (also: Alexa488 label, position shown only) [Molecule X (… labeled with Alexa488)]
Kd [16]: 903 nM
Kd [17]: 904 nM
Kd [18]: 139 nM
Kd [19]: 1000 nM

Molecule: YPYFIPL (not fully specified (N-terminus, C-terminus)) [Molecule Y2]
Kd [5]: 92 nM

Second part, the molecule after the results:

Kd [1]: 100 nM
Molecule: YPYFIPB-Alexa488 (peptide)

Kd [1]: 100 nM
Molecule: YPBFIPL-Alexa488 (peptide)

Kd [2]: 1200 nM
IC50 (read off the curve) [3]: 3000 nM
Kd [4]: 1200 nM
Molecule: Ac-YPYFIPL-NH2

Kd [5]: 62 nM
Molecule: YPYFIPL (not fully specified (N-terminus, C-terminus)) [Molecule Y4]

Ka [11]: 1.09e+06 M⁻¹
Kd [12]: 1640 nM
Stoichiometry [12]: 0.86
TΔS [12]: -5.46 kcal/mol
ΔG [12]: -7.9 kcal/mol
ΔH [12]: -13.3 kcal/mol
Ka [13]: 610000 M⁻¹
Kd [14]: 914 nM
Stoichiometry [14]: 0.71
TΔS [14]: -9.81 kcal/mol
ΔG [14]: -8.23 kcal/mol
ΔH [14]: -18 kcal/mol
Molecule: Ac-HWPFFIRS-NH2 [BMS-655507 (Ac-His-Trp-Pro-Phe-Phe-Ile-Arg-Ser)]

Ka [11]: 1.65e+07 M⁻¹
n (stoichiometry) [11]: 1.03
ΔH [11]: -12.9 kcal/mol
Kd [20]: 61 nM
Kd [21]: 380 nM
Stoichiometry (mole:mole) [21]: 0.93 mole:mole
T(dS) [21]: -6.8 kcal/mol
ΔG [21]: -9.1 kcal/mol
ΔH [21]: -15.9 kcal/mol
Kd [22]: 1070 nM
Kd [23]: 84 nM
Kd [24]: 280 nM
Stoichiometry (mole:mole) [24]: 0.96 mole:mole
T(dS) [24]: -5.7 kcal/mol
ΔG [24]: -9.3 kcal/mol
ΔH [24]: -15 kcal/mol
IC50 (read off the curve) [25]: 500 nM
Kd [26]: 1070 nM
Kd [27]: 84.2 nM
Molecule: Ac-NLTTYPYFIPLP-NH2

Ka [11]: 8.86e+06 M⁻¹
n (stoichiometry) [11]: 1.06
ΔH [11]: -11.8 kcal/mol
Kd [20]: 113 nM
Molecule: Ac-ALYPYFLPISAK-NH2
